Results published in the Human Domainome abundance scans (Beltran et al. 2025).

B1: Cold shock protein CspB, residues 1 to 66; numbered along this chain, P41016 (parent)
chain: MQRGKVKWFNNEKGYGFIEVEGGSDVFVHFTAIQGEGFKTLEEGQEVSFEIVQGNRGPQAANVVKL

Variants of: B1
Assay: abundance fitness (aPCA) (normalised: wild type 0, dead -1); higher = more abundant; growth selection in yeast, the domain comes from the species named
Conditions: Bacillus caldolyticus

Abundance fitness of substitutions, site by site:
I18: W -0.973 | G -1.07 | P -1.19 | N -0.85 | C -0.164 | D -1.08 | L 0.015 | T -0.721 | H -0.812 | Q -1.12 | A -0.272 | M -0.208 | Y -1.07 | K -0.926 | F -0.297
W8: G -0.304 | C -0.046 | R -0.075
G14: D -0.468 | T -0.383 | Q -0.196 | F -0.484 | L -0.24 | S -0.123 | H -0.047 | C -0.13 | R -0.062 | Y -0.445 | K -0.06 | P -0.91 | M -0.202 | E -0.359 | I -0.902 | V -0.778 | A -0.175
G4: W -1.05 | S -0.109 | R -0.537 | T -0.77 | Q -0.428 | Y -0.81
G16: W -1.18 | C -0.861 | H -1 | V -0.847 | E -1.16 | F -0.937 | R -1.08 | A -0.696 | S -1.01 | K -1.08 | Y -0.946 | M -0.965 | T -0.954 | N -0.98 | D -0.927 | L -0.901 | I -0.911
G23: K 0.052 | H -0.053 | F -0.034 | Q 0.012 | N -0.066 | Y -0.061 | R 0.028 | C 0.029 | P -0.011 | T 0.003 | D 0.026 | S 0.011 | M 0 | V -0.021 | W -0.057 | A 0.03 | I -0.041 | L -0.003
V20: A -0.003 | H 0.094 | W 0.056 | K 0.055 | P 0.018 | D -0.054 | R -0.006 | I -0.014 | L 0 | S -0.011 | M -0.018 | T 0.008 | E -0.002 | F -0.092 | N -0.028 | Q 0.046 | Y -0.001
V6: C -0.058 | I -0.017 | G -0.452 | T -0.002 | R -0.971 | E -1.02 | D -1.09 | F -0.622 | P -0.801 | H -0.863 | A -0.088 | Q -0.824 | M -0.104 | L -0.158 | W -0.756 | S -0.324
K13: C -0.071 | S -0.044 | I -0.065 | F -0.1 | W -0.089 | G -0.131 | Q -0.072 | E -0.133 | H 0 | D -0.09 | A -0.078 | L 0.014 | M -0.019 | P -0.154 | V -0.044 | R -0.007 | N -0.106 | Y -0.03
E19: K 0.031 | Y -0.075 | W -0.011 | R 0.008 | S 0.016 | P -0.316 | L 0.019 | A 0.05 | I -0.021 | G 0.023 | V 0.002 | T -0.029 | D 0.006 | H 0.016 | Q 0.009 | F -0.048 | N -0.003 | M 0 | C 0.021
G22: I -0.027 | F -0.016 | S 0.011 | T 0.025 | E -0.013 | M -0.01 | R -0.011 | V -0.02 | W -0.019 | Q -0.035 | C 0.02 | L -0.012 | Y -0.063
S24: R 0.01 | P 0.012 | K 0.015 | T 0.003 | Y -0.016 | H 0.007 | N 0.004 | L -0.002
